Results from patent publication US20210269521A1 (L AND L BIOPHARMA, published 2021).

Columns and labels:
[1] = target: T1, human TIM-3 extracellular domain-human IgG1 Fc fusion protein (human, UniProt Q8TDQ0 22-199); assay: ELISA
T1 construct: Made in house or bought (ACROBiosystems TM3-H5258); also called TIM-3-hFc; not shown: human IgG1 Fc
Description: Goat-anti-hFc (Jackson, 109-005-008) was diluted to a concentration of 1 μg/ml with PBS buffer (pH 7.4) and added to a 96-well microplate (Corning, CLS3590-100EA) at a volume of 50 μl/well, then incubated in an incubator at 37° C. for 2 hours (Or the antigen TIM-3 was directly used to coat the microplate with a concentration of 0.5 μg/ml, and then the antibody to be tested was directly added). After discarding the liquid, a blocking solution of 5% skimmed milk (skimmed milk powder purchased from Bright) diluted with PBS was added at 200 μl per well, and the microplate was incubated for 2.5 hours at 37° C. or overnight (16-18 hours) at 4° C. for blocking. The blocking solution was discarded, and the microplate was washed 5 times with PBST buffer (PBS with pH 7.4 containing 0.05% tween-20), then 50 μl/well of 0.5 μg/ml TIM-3-hFc (Example 1) was added and incubated for 2 hours in a 37° C. incubator. After incubation, the microplate was washed 6 times with PB ST. 50 μl/well of supernatant (containing testing antibody) or different concentrations of the antibody to be tested was added, and the microplate was incubated at 37° C. for 2 hours and washed 5 times with PBST. 50 μl/well of 1:2500 diluted HRP-labeled secondary antibody (Jackson Immuno Research, 115-035-003) was added to the microplate, incubating at 37° C. for 1 hour. After washing the microplate 5 times with PBST, 50 μl/well TMB chromogenic substrate (KPL, 52-00-03) was added to the microplate, followed by incubating at room temperature for 10-15 min.

[2] = target: T2, human PD-1 extracellular domain protein expressed in Example 1 (tag not stated) (human, UniProt Q15116 25-170); assay: ELISA, PD-1 coated
T2 construct: extracellular domain; also called PD-1 protein; not shown: human IgG1 Fc or his tag
Description: (§1) PD-1 expressed in Example 1 was diluted to a concentration of 1 μg/ml with PBS buffer, pH 7.4, and added to a 96-well microplate (Corning, CLS3590-100EA) at 50 μl per well, thereby incubating in an incubator at 37° C. for 2 hours. After discarding the liquid, a blocking solution of 5% skimmed milk (Shanghai Shenggong Biological Engineering Co., Ltd., A600669-0250) diluted with PBS was added at 200 μl per well, followed by incubating at 37° C. for 3 hours or 4° C. overnight (16-18 hours)) for blocking. Subsequently, the blocking solution was discarded, and the microplate was washed 5 times with PBST buffer (pH 7.4 PBS containing 0.05% tween-20). […] Subsequently, the microplate was washed 5 times with PBST, then 50 μl/well of 1:2500 diluted HRP-labeled secondary antibody (Jackson Immuno Research, 115-035-003) was added, thereby incubating at 37° C. for 1 hour. After washing the microplate 5 times with PBST, 50 μl/well TMB chromogenic substrate (KPL, 52-00-03) was added, then incubated at room temperature for 5-10 min. Finally, 50 μl/well of 1M H₂SO₄ was added to stop the reaction. […] Go microplate reader (ThermoFisher, 51119200) was used to read the absorption value at 450 nm and the EC50 based on the OD value was calculated.

[3] = target: T2, human PD-1 extracellular domain protein …; assay: ELISA, EC50 of bispecific over EC50 of the monoclonal control
Description: After washing the microplate 5 times with PBST, 50 μl/well TMB chromogenic substrate (KPL, 52-00-03) was added to the microplate, followed by incubating at room temperature for 10-15 min.
as §1

[4] = target: T1, human TIM-3 extracellular domain-human …; assay: as above

EC50 [1] [nM]	EC50 [2] [nM]	Multiple of EC50 variation [3] [ratio]	Multiple of EC50 variation [4] [ratio]	Binder
0.216	0.214	0.81	1.36	bispecific antibody LB243 (bispecific antibody, human IgG4 S228P, kappa) light: DIQMTQSPSSLSASVGDRVTITCHASQGISSNIGWLQQKPGKAFKGLIYQGSNLEDGVPSRFSGSGSGADYTLTISSLQPEDFATYYCVQFAQFPPTFGQGTKLEIKGGGGSGGGGSGGGGSEVQLVESGGGLVKPGGSLRLSCAASGFTFSDYYMAWVRQAPGKGLEWVANINYDGSNTYYLDSLKSRFTISRDNAKNSLYLQMNSLRAEDTAVYYCARGLYYYGGNYFAYWGQGTLVTVSSGGGGSGGGGSGGGGSEIVLTQSPATLSLSPGERATLSCRASKGVSTSGYSYLHWYQQKPGQAPRLLIYLASYLESGVPARFSGSGSGTDFTLTISSLEPEDFAVYYCQHSRDLPLTFGGGTKVEIKRTVAAPSVFIFPPSDEQLKSGTASVVCLLNNFYPREAKVQWKVDNALQSGNSQESVTEQDSKDSTYSLSSTLTLSKADYEKHKVYACEVTHQGLSSPVTKSFNRGECGGGGSGGGGSGGGGSEVQLVESGGGLVKPGGSLRLSCAASGFTFSDYYMAWVRQAPGKGLEWVANINYDGSNTYYLDSLKSRFTISRDNAKNSLYLQMNSLRAEDTAVYYCARGLYYYGGNYFAYWGQGTLVTVSSGGGGSGGGGSGGGGSDIQMTQSPSSLSASVGDRVTITCHASQGISSNIGWLQQKPGKAFKGLIYQGSNLEDGVPSRFSGSGSGADYTLTISSLQPEDFATYYCVQFAQFPPTFGQGTKLEIK heavy: not shown
3.42	0.079	0.82	4.37	bispecific antibody LB1412 (bispecific antibody, human IgG4 S228P, kappa) light: EIVLTQSPATLSLSPGERATLSCRASKGVSTSGYSYLHWYQQKPGQAPRLLIYLASYLESGVPARFSGSGSGTDFTLTISSLEPEDFAVYYCQHSRDLPLTFGGGTKVEIKRTVAAPSVFIFPPSDEQLKSGTASVVCLLNNFYPREAKVQWKVDNALQSGNSQESVTEQDSKDSTYSLSSTLTLSKADYEKHKVYACEVTHQGLSSPVTKSFNRGEC heavy: not shown
0.521	0.066	0.69	0.67	bispecific antibody LB1413 (bispecific antibody, human IgG4 S228P, kappa, ab6VL-(G4S)3-ab6VH-(G4S)3-PemVL-κ with PemVH-hIgG4) light: DIQMTQSPSSLSASVGDRVTITCHASQGISSNIGWLQQKPGKAFKGLIYQGSNLEDGVPSRFSGSGSGADYTLTISSLQPEDFATYYCVQFAQFPPTFGQGTKLEIKGGGGSGGGGSGGGGSEVQLVESGGGLVKPGGSLRLSCAASGFTFSDYYMAWVRQAPGKGLEWVANINYDGSNTYYLDSLKSRFTISRDNAKNSLYLQMNSLRAEDTAVYYCARGLYYYGGNYFAYWGQGTLVTVSSGGGGSGGGGSGGGGSEIVLTQSPATLSLSPGERATLSCRASKGVSTSGYSYLHWYQQKPGQAPRLLIYLASYLESGVPARFSGSGSGTDFTLTISSLEPEDFAVYYCQHSRDLPLTFGGGTKVEIKRTVAAPSVFIFPPSDEQLKSGTASVVCLLNNFYPREAKVQWKVDNALQSGNSQESVTEQDSKDSTYSLSSTLTLSKADYEKHKVYACEVTHQGLSSPVTKSFNRGEC heavy: not shown
0.21	0.18	0.68	1.32	bispecific antibody LB244 (bispecific antibody, human IgG4 S228P, kappa) light: DIQMTQSPSSLSASVGDRVTITCHASQGISSNIGWLQQKPGKAFKGLIYQGSNLEDGVPSRFSGSGSGADYTLTISSLQPEDFATYYCVQFAQFPPTFGQGTKLEIKGGGGSGGGGSGGGGSEVQLVESGGGLVKPGGSLRLSCAASGFTFSDYYMAWVRQAPGKGLEWVANINYDGSNTYYLDSLKSRFTISRDNAKNSLYLQMNSLRAEDTAVYYCARGLYYYGGNYFAYWGQGTLVTVSSGGGGSGGGGSGGGGSEIVLTQSPATLSLSPGERATLSCRASKGVSTSGYSYLHWYQQKPGQAPRLLIYLASYLESGVPARFSGSGSGTDFTLTISSLEPEDFAVYYCQHSRDLPLTFGGGTKVEIKRTVAAPSVFIFPPSDEQLKSGTASVVCLLNNFYPREAKVQWKVDNALQSGNSQESVTEQDSKDSTYSLSSTLTLSKADYEKHKVYACEVTHQGLSSPVTKSFNRGEC heavy: not shown
0.547	0.365	3.8	0.7	bispecific antibody LB241 (bispecific antibody, human IgG4 S228P, kappa) light: DIQMTQSPSSLSASVGDRVTITCHASQGISSNIGWLQQKPGKAFKGLIYQGSNLEDGVPSRFSGSGSGADYTLTISSLQPEDFATYYCVQFAQFPPTFGQGTKLEIKGGGGSGGGGSGGGGSEVQLVESGGGLVKPGGSLRLSCAASGFTFSDYYMAWVRQAPGKGLEWVANINYDGSNTYYLDSLKSRFTISRDNAKNSLYLQMNSLRAEDTAVYYCARGLYYYGGNYFAYWGQGTLVTVSSGGGGSGGGGSGGGGSEIVLTQSPATLSLSPGERATLSCRASKGVSTSGYSYLHWYQQKPGQAPRLLIYLASYLESGVPARFSGSGSGTDFTLTISSLEPEDFAVYYCQHSRDLPLTFGGGTKVEIKRTVAAPSVFIFPPSDEQLKSGTASVVCLLNNFYPREAKVQWKVDNALQSGNSQESVTEQDSKDSTYSLSSTLTLSKADYEKHKVYACEVTHQGLSSPVTKSFNRGEC heavy: not shown
3.52	0.045	0.47	4.5	bispecific antibody LB1414 (bispecific antibody, human IgG4 S228P, kappa) light: EIVLTQSPATLSLSPGERATLSCRASKGVSTSGYSYLHWYQQKPGQAPRLLIYLASYLESGVPARFSGSGSGTDFTLTISSLEPEDFAVYYCQHSRDLPLTFGGGTKVEIKRTVAAPSVFIFPPSDEQLKSGTASVVCLLNNFYPREAKVQWKVDNALQSGNSQESVTEQDSKDSTYSLSSTLTLSKADYEKHKVYACEVTHQGLSSPVTKSFNRGECGGGGSGGGGSGGGGSEVQLVESGGGLVKPGGSLRLSCAASGFTFSDYYMAWVRQAPGKGLEWVANINYDGSNTYYLDSLKSRFTISRDNAKNSLYLQMNSLRAEDTAVYYCARGLYYYGGNYFAYWGQGTLVTVSSGGGGSGGGGSGGGGSDIQMTQSPSSLSASVGDRVTITCHASQGISSNIGWLQQKPGKAFKGLIYQGSNLEDGVPSRFSGSGSGADYTLTISSLQPEDFATYYCVQFAQFPPTFGQGTKLEIK heavy: not shown
0.124	0.084	0.32	0.78	bispecific antibody LB242 (bispecific antibody, human IgG4 S228P, kappa) light: EIVLTQSPATLSLSPGERATLSCRASKGVSTSGYSYLHWYQQKPGQAPRLLIYLASYLESGVPARFSGSGSGTDFTLTISSLEPEDFAVYYCQHSRDLPLTFGGGTKVEIKRTVAAPSVFIFPPSDEQLKSGTASVVCLLNNFYPREAKVQWKVDNALQSGNSQESVTEQDSKDSTYSLSSTLTLSKADYEKHKVYACEVTHQGLSSPVTKSFNRGECGGGGSGGGGSGGGGSEVQLVESGGGLVKPGGSLRLSCAASGFTFSDYYMAWVRQAPGKGLEWVANINYDGSNTYYLDSLKSRFTISRDNAKNSLYLQMNSLRAEDTAVYYCARGLYYYGGNYFAYWGQGTLVTVSSGGGGSGGGGSGGGGSDIQMTQSPSSLSASVGDRVTITCHASQGISSNIGWLQQKPGKAFKGLIYQGSNLEDGVPSRFSGSGSGADYTLTISSLQPEDFATYYCVQFAQFPPTFGQGTKLEIK heavy: not shown
0.391	0.342	1.3	2.46	bispecific antibody LB245 (bispecific antibody, human IgG4 S228P, kappa) light: EIVLTQSPATLSLSPGERATLSCRASKGVSTSGYSYLHWYQQKPGQAPRLLIYLASYLESGVPARFSGSGSGTDFTLTISSLEPEDFAVYYCQHSRDLPLTFGGGTKVEIKRTVAAPSVFIFPPSDEQLKSGTASVVCLLNNFYPREAKVQWKVDNALQSGNSQESVTEQDSKDSTYSLSSTLTLSKADYEKHKVYACEVTHQGLSSPVTKSFNRGECGGGGSGGGGSGGGGSEVQLVESGGGLVKPGGSLRLSCAASGFTFSDYYMAWVRQAPGKGLEWVANINYDGSNTYYLDSLKSRFTISRDNAKNSLYLQMNSLRAEDTAVYYCARGLYYYGGNYFAYWGQGTLVTVSSGGGGSGGGGSGGGGSDIQMTQSPSSLSASVGDRVTITCHASQGISSNIGWLQQKPGKAFKGLIYQGSNLEDGVPSRFSGSGSGADYTLTISSLQPEDFATYYCVQFAQFPPTFGQGTKLEIK heavy: not shown
